Experimental data published in PMC5500506.

test system: T1, GdmRIII (Streptomyces autolyticus CGMCC0516), ORF:755639c7; experiment: EMSA; conditions: EMSA: 10 mM Tris-HCl pH 7.5, 50 mM NaCl, 10 mM MgCl2, 1 mM EDTA, 1 mM DTT, 5% glycerol, 0.1 ug/ul poly(dI-dC), 0.3 nM DNA; temperature not given
T1 sequence: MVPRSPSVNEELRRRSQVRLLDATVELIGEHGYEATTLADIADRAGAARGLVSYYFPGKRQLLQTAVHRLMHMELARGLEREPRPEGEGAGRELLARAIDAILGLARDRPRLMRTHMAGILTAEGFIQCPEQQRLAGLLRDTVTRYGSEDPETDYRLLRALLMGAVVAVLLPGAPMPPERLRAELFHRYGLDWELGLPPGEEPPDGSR

Row | Sequence | binding
1 | AGGAGCTGCCCGACTGGCGGTCCTTCTGGGAGCTGCCGCACGACATCGTCGATGTGCGCGGCAACCACTTCACCATGATGGAGGACCACTCCCTCCCCACCGCCCAGGCCATCGAGGACTGGCTGGAGCGACT (double strand) [elaF promoter] | binds
2 | GCTCACCGACCCCGCGCACGAGGTGCTGGTCATCACGATGGCCGACCGGTTCGGCCCGCACGGCGCCGTCGGCATCGTGCTGCTGGAACGCCACCCGGCGGTGTGGCATCTGAAACTGCTCGCCACCTCCTGCCGTGTGGTCTCCTACGGCGCCGGGTCCACCCTGCTGAACTGGCTGGCCGACCAGGCGGCGCGTGCCGGGGTGCATCTGGCCGCCGACTTCCGGCGCACCGACCGCAACCGGATGATGGAGGTCGCCTACCGCTTCGCCGGGTTCGCCGACGCCGACTGCGCCTGCAC (double strand) [gdmN promoter] | binds
3 | GCGACGTCCACCGCCGTCTCCTTCCCGCTCATTCGCCCGCCAGGATCAGATCGACCGTGTCCTGGAACTCGTCCGCCTTCACCAGCACCTTGGTGCGCTCCACCCCGTCCTCGACGGTGAAGCAGCGCCTGCCGATCAGCACGATCTTTCCGTTGTCCGTGGCCCGGCTGCGGAAGGTGGTCCCGGCGAGCACCGAGTCCTGTGCGTAGTCGTCCAGGCTGTCCAGCCGCACCGCGTCCCAGCCGGACGGGTCGGCCAGCTCCGGCCGGAACCGGTACACCGGCTGCCAGCCGCTCTC (double strand) [gdmM promoter] | binds
